Assay results: the supplement of paper PMC10899765

Assays:
Conditions in all cases: 20 nM; 72 h
MCF10A [1] = test: percent viability (nuclei count relative to siNT); higher = more viable cells
Protocol: (§1)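 After 72 h, cells were fixed and stained with Hoechst and anti-fibrillarin, and nucleoli per nucleus were counted with CellProfiler. Values are plate-adjusted percent effect for the one-nucleolus and 5+ nucleoli phenotypes, normalised to siNT (0%) and to the positive controls siNOL11 or siKIF11 (100%), as the mean of biological triplicates. Percent viability is the nuclei count relative to siNT.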

MCF10A [2] = test: one-nucleolus phenotype percent effect (relative to siNT 0% and siNOL11 100%); higher = more cells with one nucleolus (ribosome biogenesis inhibition)
Protocol: as §1

MCF10A [3] = test: 5+ nucleoli phenotype percent effect (relative to siNT 0% and siKIF11 100%); higher = more cells with five or more nucleoli
Protocol: as §1

| Sequence | percent viability (MCF10A [1]) [%] | one-nucleolus phenotype percent effect (MCF10A [2]) [%] | 5+ nucleoli phenotype percent effect (MCF10A [3]) [%] |
| --- | --- | --- | --- |
| UGACCUUUGCCUCUCCCCUCAG [hsa-miR-6759-3p] | 20.7 | 51.3 | -31.2 |
| UGACGCCCCUUCUGAUUCUGCCU [hsa-miR-6786-3p] | 50.9 | 0.306 | -4.1 |
| UGACUAACUCCCACUCUACAG [hsa-miR-6831-3p] | 41.8 | -28.1 | 16.8 |
| UGACUCUGCCUGUAGGCCGGU [hsa-miR-4522] | 16.2 | 23.6 | -19.6 |
| UGACUGAGCUUCUCCCCACAG [hsa-miR-6857-3p] | 34.9 | 32.8 | -17.1 |
| UGACUGCCUCACUGACCACUU [hsa-miR-5002-3p] | 50.5 | -1.84 | -20.8 |
| UGACUUCUACCUCUUCCAAAG [hsa-miR-6505-3p] | 33.6 | 46.6 | -48 |
| UGAGAACCACGUCUGCUCUGAG [hsa-miR-589-5p] | 88.9 | -14.3 | -4.96 |
| UGAGAACUGAAUUCCAUAGGCU [hsa-miR-146b-5p] | 52.1 | 0.774 | -25.8 |
| UGAGAACUGAAUUCCAUGGGUU [hsa-miR-146a-5p] | 51.1 | 9.23 | -31.6 |
| UGAGAACUGACAAAUGUGGUAGG [hsa-miR-7153-5p] | 61.9 | -18.9 | 14 |
| UGAGAAGGCACAGCUUGCACGUGA [hsa-miR-6770-5p] | 36.9 | 34.3 | -3.61 |
| UGAGACAGGCUUAUGCUGCUAU [hsa-miR-4524a-3p] | 21.6 | 24.8 | 8.73 |
| UGAGACCAGGACUGGAUGCACC [hsa-miR-4786-5p] | 42.2 | -5.75 | -0.448 |
| UGAGACCUCUGGGUUCUGAGCU [hsa-miR-769-5p] | 47.4 | 7.1 | 9.63 |
| UGAGAGUGGAAUUCACAGUAUUU [hsa-miR-4693-3p] | 23 | 35.2 | -31.4 |
| UGAGAUGAAGCACUGUAGCUC [hsa-miR-143-3p] | 47.9 | -0.991 | -1.77 |
| UGAGAUGACACUGUAGCU [hsa-miR-4770] | 33.4 | 11.7 | -3.17 |
| UGAGCACCACACAGGCCGGGCGC [hsa-miR-3663-3p] | 58.5 | -6.6 | 12.4 |
| UGAGCCCCUGUGCCGCCCCCAG [hsa-miR-1225-3p] | 98.1 | -16.7 | 19.9 |

| Sequence | percent viability (MCF10A [1]) [%] | one-nucleolus phenotype percent effect (MCF10A [2]) [%] | 5+ nucleoli phenotype percent effect (MCF10A [3]) [%] |
| --- | --- | --- | --- |
| UGAGCCCUGUCCUCCCGCAG [hsa-miR-1233-3p] | 63.8 | -6.71 | 7.25 |
| UGAGCCGAGCUGAGCUUAGCUG [hsa-miR-4537] | 73.5 | -6.98 | -4.47 |
| UGAGCCUCUCCUUCCCUCCAG [hsa-miR-6823-3p] | 31.2 | -2.85 | 12.9 |
| UGAGCGCCUCGACGACAGAGCCG [hsa-miR-339-3p] | 82.2 | -25.2 | 27 |
| UGAGCUAAAUGUGUGCUGGGA [hsa-miR-610] | 131 | -14.8 | 20.7 |
| UGAGCUGCUGUACCAAAAU [hsa-miR-558] | 65.1 | 6.73 | 0.086 |
| UGAGGACAGGGCAAAUUCACGA [hsa-miR-5004-5p] | 36 | 10 | -12.8 |
| UGAGGAGAUCGUCGAGGUUGG [hsa-miR-3150b-3p] | 47.3 | -11.7 | 24.3 |
| UGAGGAGAUGCUGGGACUGA [hsa-miR-4784] | 56.7 | -9 | 22.8 |
| UGAGGAUAUGGCAGGGAAGGGGA [hsa-miR-3679-5p] | 100 | -24.2 | 29.7 |
| UGAGGAUGGAUAGCAAGGAAGCC [hsa-miR-3605-5p] | 69.7 | -3.45 | 12 |
| UGAGGCAGUAGAUUGAAU [hsa-miR-1827] | 16.7 | 60.2 | -33.8 |
| UGAGGCCCUUGGGGCACAGUGG [hsa-miR-5008-5p] | 22.9 | 6.37 | -8.69 |
| UGAGGCGGGGGGGCGAGC [hsa-miR-6087] | 53.3 | 15.3 | -13.4 |
| UGAGGCUAAUGCACUACUUCAC [hsa-miR-3975] | 15.5 | 38.9 | -22.7 |
| UGAGGCUCUGUUAGCCUUGGCUC [hsa-miR-2467-5p] | 29.8 | 37.5 | -10.9 |
| UGAGGGACAGAUGCCAGAAGCA [hsa-miR-3126-5p] | 16.2 | 40 | -33.3 |
| UGAGGGACCCAGGACAGGAGA [hsa-miR-6875-5p] | 29 | 13.7 | -0.911 |
| UGAGGGAGGAGACUGCA [hsa-miR-4419a] | 7.9 | 18.6 | -18.8 |
| UGAGGGAGGAGGUUGGGUA [hsa-miR-6133] | 17.2 | 1.81 | -0.793 |

| Sequence | percent viability (MCF10A [1]) [%] | one-nucleolus phenotype percent effect (MCF10A [2]) [%] | 5+ nucleoli phenotype percent effect (MCF10A [3]) [%] |
| --- | --- | --- | --- |
| UGAGGGAGUAGGAUGUAUGGUU [hsa-miR-4510] | 16.6 | 13.3 | -17.6 |
| UGAGGGAGUGGAUUGUAUG [hsa-miR-6130] | 16.7 | -1.2 | -15.2 |
| UGAGGGAGUGGGUGGGAGG [hsa-miR-6127] | 39.8 | 3.31 | -15.1 |
| UGAGGGAGUUGGGUGUAUA [hsa-miR-6129] | 24.3 | 18.8 | -7.69 |
| UGAGGGCUCCAGGUGACGGUGG [hsa-miR-4721] | 22 | 27.2 | -20.6 |
| UGAGGGGCAGAGAGCGAGACUUU [hsa-miR-423-5p] | 41.6 | 13.3 | -10.7 |
| UGAGGGGCCUCAGACCGAGCUUUU [hsa-miR-3184-5p] | 31.2 | 5.35 | 38.7 |
| UGAGGGGUUUGGAAUGGGAUGG [hsa-miR-5194] | 14.8 | 13.7 | 21 |
| UGAGGGUGUCAGCAGGUGACG [hsa-miR-6804-5p] | 11.7 | 19.5 | 0.774 |
| UGAGGUAGGAGGUUGUAUAGUU [hsa-let-7e-5p] | 23 | -8.3 | 48.7 |
| UGAGGUAGUAAGUUGUAUUGUU [hsa-miR-98-5p] | 30 | -13 | 44.8 |
| UGAGGUAGUAGAUUGUAUAGUU [hsa-let-7f-5p] | 123 | -20.6 | 25.3 |
| UGAGGUAGUAGGUUGUAUAGUU [hsa-let-7a-5p] | 29.1 | -24.4 | 61.1 |
| UGAGGUAGUAGGUUGUAUGGUU [hsa-let-7c] | 25.9 | -17.3 | 56.3 |
| UGAGGUAGUAGGUUGUGUGGUU [hsa-let-7b-5p] | 22.8 | -9.82 | 33.9 |
| UGAGGUAGUAGUUUCUU [hsa-miR-4500] | 89.3 | -31.4 | 43.2 |
| UGAGGUAGUAGUUUGUACAGUU [hsa-let-7g-5p] | 21.6 | -16.7 | 29 |
| UGAGGUAGUAGUUUGUGCUGUU [hsa-let-7i-5p] | 16.5 | -11.8 | 23.9 |
| UGAGGUGACCGCAGAUGGGAA [hsa-miR-7854-3p] | 14.8 | 29.8 | -6.86 |
| UGAGGUGGUAGGAUGUAGA [hsa-miR-6134] | 12 | 40.7 | -36 |
